Literature values, collected in article PMC2962622.

Target: NIFK 44-residue phosphopeptide (Homo sapiens) (UniProt Q9BYG3)
UniProt Q9BYG3, sequence (Q9BYG3 2-293): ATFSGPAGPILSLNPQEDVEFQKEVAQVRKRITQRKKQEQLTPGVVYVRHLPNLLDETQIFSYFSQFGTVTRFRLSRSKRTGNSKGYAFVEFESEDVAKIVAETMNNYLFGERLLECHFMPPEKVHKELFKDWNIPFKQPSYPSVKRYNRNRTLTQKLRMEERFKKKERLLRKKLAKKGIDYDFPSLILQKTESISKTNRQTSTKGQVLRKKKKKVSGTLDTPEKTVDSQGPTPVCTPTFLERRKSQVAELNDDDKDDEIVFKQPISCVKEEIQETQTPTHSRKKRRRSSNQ

Ki67 FHA (from UniProt P46013)
Kd: 0.077 µM
